# Paper PMC7367873, “Dissecting the sequence determinants for dephosphorylation by the catalytic subunits of phosphatases PP1 and PP2A” (Nature Communications, 2020)
# Columns and labels:
# [1] = tested on: GFP-14-3-3β; experiment: GFP-14-3-3β co-IP with LC-MS/MS, untreated GFP-14-3-3β versus GFP control (14-3-3 interactome); format: binding, human; settings: pairwise comparison untreated GFP-14-3-3β vs GFP, student's t-test; 3 replicates each; LC-MS/MS label-free quantification
# [2] = tested on: GFP-14-3-3β and its binding proteins; experiment: GFP-14-3-3β co-IP with LC-MS/MS label-free quantification, untreated versus PP1c-treated; set-up: species or system human; settings: pairwise comparison PP1 vs untreated, student's t-test; 3 replicates each; LC-MS/MS label-free quantification
Molecule,"Difference (log2), untreated vs GFP [1] [log2]","Difference (log2), PP1 vs untreated [2] [log2]"
"TSC1 (protein, UniProt Q92574 1-1164, looked up) Hamartin: MAQQANVGELLAMLDSPMLGVRDDVTAVFKENLNSDRGPMLVNTLVDYYLETSSQPALHILTTLQEPHDKHLLDRINEYVGKAATRLSILSLLGHVIRLQPSWKHKLSQAPLLPSLLKCLKMDTDVVVLTTGVLVLITMLPMIPQSGKQHLLDFFDIFGRLSSWCLKKPGHVAEVYLVHLHASVYALFHRLYGMYPCNFVSFLRSHYSMKENLETFEEVVKPMMEHVRIHPELVTGSKDHELDPRRWKRLETHDVVIECAKISLDPTEASYEDGYSVSHQISARFPHRSADVTTSPYADTQNSYGCATSTPYSTSRLMLLNMPGQLPQTLSSPSTRLITEPPQATLWSPSMVCGMTTPPTSPGNVPPDLSHPYSKVFGTTAGGKGTPLGTPATSPPPAPLCHSDDYVHISLPQATVTPPRKEERMDSARPCLHRQHHLLNDRGSEEPPGSKGSVTLSDLPGFLGDLASEEDSIEKDKEEAAISRELSEITTAEAEPVVPRGGFDSPFYRDSLPGSQRKTHSAASSSQGASVNPEPLHSSLDKLGPDTPKQAFTPIDLPCGSADESPAGDRECQTSLETSIFTPSPCKIPPPTRVGFGSGQPPPYDHLFEVALPKTAHHFVIRKTEELLKKAKGNTEEDGVPSTSPMEVLDRLIQQGADAHSKELNKLPLPSKSVDWTHFGGSPPSDEIRTLRDQLLLLHNQLLYERFKRQQHALRNRRLLRKVIKAAALEEHNAAMKDQLKLQEKDIQMWKVSLQKEQARYNQLQEQRDTMVTKLHSQIRQLQHDREEFYNQSQELQTKLEDCRNMIAELRIELKKANNKVCHTELLLSQVSQKLSNSESVQQQMEFLNRQLLVLGEVNELYLEQLQNKHSDTTKEVEMMKAAYRKELEKNRSHVLQQTQRLDTSQKRILELESHLAKKDHLLLEQKKYLEDVKLQARGQLQAAESRYEAQKRITQVFELEILDLYGRLEKDGLLKKLEEEKAEAAEAAEERLDCCNDGCSDSMVGHNEEASGHNGETKTPRPSSARGSSGSRGGGGSSSSSSELSTPEKPPHQRAGPFSSRWETTMGEASASIPTTVGSLPSSKSFLGMKARELFRNKSESQCDEDGMTSSLSESLKTELGKDLGVEAKIPLNLDGPHPSPPTPDSVGQLHIMDYNETHHEHS",2.521,-3.2926
"PDLIM5 (protein, UniProt Q96HC4 2-596, looked up) PDZ and LIM domain protein 5: SNYSVSLVGPAPWGFRLQGGKDFNMPLTISSLKDGGKAAQANVRIGDVVLSIDGINAQGMTHLEAQNKIKGCTGSLNMTLQRASAAPKPEPVPVQKGEPKEVVKPVPITSPAVSKVTSTNNMAYNKAPRPFGSVSSPKVTSIPSPSSAFTPAHATTSSHASPSPVAAVTPPLFAASGLHANANLSADQSPSALSAGKTAVNVPRQPTVTSVCSETSQELAEGQRRGSQGDSKQQNGPPRKHIVERYTEFYHVPTHSDASKKRLIEDTEDWRPRTGTTQSRSFRILAQITGTEHLKESEADNTKKANNSQEPSPQLASSVASTRSMPESLDSPTSGRPGVTSLTAAAAFKPVGSTGVIKSPSWQRPNQGVPSTGRISNSATYSGSVAPANSALGQTQPSDQDTLVQRAEHIPAGKRTPMCAHCNQVIRGPFLVALGKSWHPEEFNCAHCKNTMAYIGFVEEKGALYCELCYEKFFAPECGRCQRKILGEVISALKQTWHVSCFVCVACGKPIRNNVFHLEDGEPYCETDYYALFGTICHGCEFPIEAGDMFLEALGYTWHDTCFVCSVCCESLEGQTFFSKKDKPLCKKHAHSVNF",1.189,-3.258
"SHCBP1 (protein, UniProt Q8NEM2 2-672, looked up) SHC SH2 domain-binding …: ADGSLTGGGLEAAAMAPERMGWAVEQELASLEKGLFQDEDSCSDCSYRDKPGSSLQSFMPEGKTFFPEIFQTNQLLFYERFRAYQDYILADCKASEVQEFTAEFLEKVLEPSGWRAVWHTNVFKVLVEITDVDFAALKAVVRLAEPYLCDSQVSTFTMECMKELLDLKEHRLPLQELWVVFDDSGVFDQTALAIEHVRFFYQNIWRSWDEEEEDEYDYFVRCVEPRLRLHYDILEDRVPSGLIVDYHNLLSQCEESYRKFLNLRSSLSNCNSDSEQENISMVEGLKLYSEMEQLKQKLKLIENPLLRYVFGYQKNSNIQAKGVRSSGQKITHVVSSTMMAGLLRSLLTDRLCQEPGEEEREIQFHSDPLSAINACFEGDTVIVCPGHYVVHGTFSIADSIELEGYGLPDDIVIEKRGKGDTFVDCTGADIKISGIKFVQHDAVEGILIVHRGKTTLENCVLQCETTGVTVRTSAEFLMKNSDLYGAKGAGIEIYPGSQCTLSDNGIHHCKEGILIKDFLDEHYDIPKISMVNNIIHNNEGYGVVLVKPTIFSDLQENAEDGTEENKALKIQTSGEPDVAERVDLEELIECATGKMELCARTDPSEQVEGNCEIVNELIAASTQKGQIKKKRLSELGITQADDNLMSQEMFVGIVGNQFKWNGKGSFGTFLF",4.099,-3.298
"ZFP36L2 (protein, UniProt P47974 1-494, looked up) mRNA decay activator protein …: MSTTLLSAFYDVDFLCKTEKSLANLNLNNMLDKKAVGTPVAAAPSSGFAPGFLRRHSASNLHALAHPAPSPGSCSPKFPGAANGSSCGSAAAGGPTSYGTLKEPSGGGGTALLNKENKFRDRSFSENGDRSQHLLHLQQQQKGGGGSQINSTRYKTELCRPFEESGTCKYGEKCQFAHGFHELRSLTRHPKYKTELCRTFHTIGFCPYGPRCHFIHNADERRPAPSGGASGDLRAFGTRDALHLGFPREPRPKLHHSLSFSGFPSGHHQPPGGLESPLLLDSPTSRTPPPPSCSSASSCSSSASSCSSASAASTPSGAPTCCASAAAAAAAALLYGTGGAEDLLAPGAPCAACSSASCANNAFAFGPELSSLITPLAIQTHNFAAVAAAAYYRSQQQQQQQGLAPPAQPPAPPSATLPAGAAAPPSPPFSFQLPRRLSDSPVFDAPPSPPDSLSDRDSYLSGSLSSGSLSGSESPSLDPGRRLPIFSRLSISDD",3.556,-3.391
